Measurements taken from PMC5959942, “Targeting G protein-coupled receptor signaling at the G protein level with a selective nanobody inhibitor” (Nature Communications, 2018).

Legend:
[1] = molecular target: T1, bovine Gβ1γ1 dimer (β1γ1 subunits of the visual G protein Gt, transducin) (bovine, UniProt P62871;P02698)
[2] = molecular target: T2, Venus-Gβ1γ2 (Venus 156-239-Gβ1 + Venus 1-155-Gγ2) (UniProt P62873;P59768); assay: FRET or BRET; BRET between Venus-Gβγ and masGRK3ct-Nluc-HA in living HEK293T/17 cells, room temperature; GαoA, Nb5-Flag or Nb17-Flag co-transfected as competitor (plasmid ratio GαoA:Gβ:Gγ2:masGRK3ct:nanobody 2:1:1:1:12); settings: partners not purified
T2 construct: G protein beta subunit subtype 1; G protein gamma subunit 2; also called Venus-Gβγ; source: HEK293T/17, transfected, in living cells

[3] = molecular target: T3, Venus-Gβ2γ2 (Venus 156-239-Gβ2 + Venus 1-155-Gγ2) (UniProt P62879;P59768); assay: as above; settings: partners not purified
T3 construct: G protein beta subunit subtype 2, GenBank AF501883; G protein gamma subunit 2; also called Venus-Gβγ; Gβ2 + Gγ2 pair; source: HEK293T/17, transfected, in living cells; not shown: Venus 156-239 (with GGSGGG linker), N-terminal, kept

[4] = molecular target: T4, Venus-Gβ3γ2 (Venus 156-239-Gβ3 + Venus 1-155-Gγ2) (UniProt P16520;P59768); assay: as above; settings: partners not purified
T4 construct: G protein beta subunit subtype 3, GenBank M31328; G protein gamma subunit 2; also called Venus-Gβγ; Gβ3 + Gγ2 pair; source: HEK293T/17, transfected, in living cells; not shown: Venus 156-239 (with GGSGGG linker), N-terminal, kept

[5] = molecular target: T5, Venus-Gβ4γ2 (Venus 156-239-Gβ4 + Venus 1-155-Gγ2) (UniProt Q9HAV0;P59768); assay: as above; settings: partners not purified
T5 construct: G protein beta subunit subtype 4, GenBank AF300648; G protein gamma subunit 2; also called Venus-Gβγ; Gβ4 + Gγ2 pair; source: HEK293T/17, transfected, in living cells; not shown: Venus 156-239 (with GGSGGG linker), N-terminal, kept

[6] = molecular target: T1, bovine Gβ1γ1 dimer (β1γ1 subunits of …); assay: SPR; same set-up as a5; affinity based (equilibrium) analysis; settings: both partners purified
[7] = molecular target: T1, bovine Gβ1γ1 dimer (β1γ1 subunits of …); assay: SPR; Biacore T100, 25 °C; Nb5 amine-coupled on CM5 (400-500 RU); Gβ1γ1 0.6-312 nM in 10 mM HEPES pH 7.5, 150 mM NaCl, 1 mM TCEP, 0.1% Tween-20; single-cycle kinetics, 1:1 Langmuir fit; settings: both partners purified
[8] = molecular target: T6, mouse Gβ1 subtype from brain (mouse (endogenous in C57BL/6J brain), UniProt P62874); assay: affinity purification with mass spectrometry; cholate-solubilized, DEAE-purified C57BL/6J mouse brain extract with a two molar excess of His-tagged Nb5, Ni2+-NTA then Talon resin; Gβ gel band digested in gel, LC-MS/MS; settings: one partner purified
T6 construct: G protein beta subunit subtype 1, mouse brain; Extracted as Gβγ; the Gγ partner is not identified; source: endogenous, C57BL/6J mouse brain membranes, cholate-solubilized and partially purified (DEAE Sepharose)

[9] = molecular target: T7, mouse Gβ2 subtype from brain (mouse (endogenous in C57BL/6J brain), UniProt P62880); assay: as above; settings: one partner purified
T7 construct: G protein beta subunit subtype 2, mouse brain; Extracted as Gβγ; the Gγ partner is not identified; source: endogenous, C57BL/6J mouse brain membranes, cholate-solubilized and partially purified (DEAE Sepharose)

[10] = molecular target: T8, mouse Gβ3 subtype from brain (mouse (endogenous in C57BL/6J brain), UniProt Q61011); assay: as above; settings: one partner purified
T8 construct: G protein beta subunit subtype 3, mouse brain; Extracted as Gβγ; the Gγ partner is not identified; source: endogenous, C57BL/6J mouse brain membranes, cholate-solubilized and partially purified (DEAE Sepharose)

[11] = molecular target: T9, mouse Gβ4 subtype from brain (mouse (endogenous in C57BL/6J brain), UniProt P29387); assay: as above; settings: one partner purified
T9 construct: G protein beta subunit subtype 4, mouse brain; Extracted as Gβγ; the Gγ partner is not identified; source: endogenous, C57BL/6J mouse brain membranes, cholate-solubilized and partially purified (DEAE Sepharose)

B1: Nb6 (VHH)
VHH: QVQLVESGGGLVQAGGSLRLSCAASGSIFSINAMNWYRQAPGKRRELVAAITNGGSTNYADSVKGRFTISRDNAKNTVYLQMNSLKPEDTAVYYCNVGRSRGYWGQGTQVTVSS
B1: binds [1].

B2: Nb7 (VHH)
VHH: QVQLVESGGGLVQAGESLRLSCAASGNIFSINATNWYRQAPGKQRELVAGITTRGSTNYADSVKGRFTISRDNAKNTVYLQMNSLKPEDTAVYYCNVGRSRGYWGQGTQVTVSS
B2: binds [1].

B3: Nb5-Flag (Nb5 with the 6 × His-tag replaced by the FLAG-tag) (VHH)
VHH: QVQLVESGGGLVQAGGSLRLSCAASGSIFSINAMGWYRQAPGKQRELVAAITRGGRTNYADSVKGRFTLSRDNAKNTVYLQMNSLKPEDTAVYYCNVGRSRGYWGQGTQVTVSS
notes: source: HEK293T/17, transfected, in living cells; CHO-APJ cells, transiently transfected (pcDNA3.1(+)); not shown: FLAG, C-terminal, kept
B3: binds [2]; binds [3]; binds [4]. B3: binds [5].

B4: Nb5 (llama-derived nanobody against the Gβ1γ1 dimer), C-terminal His-tag (VHH)
VHH: QVQLVESGGGLVQAGGSLRLSCAASGSIFSINAMGWYRQAPGKQRELVAAITRGGRTNYADSVKGRFTLSRDNAKNTVYLQMNSLKPEDTAVYYCNVGRSRGYWGQGTQVTVSS
notes: Selected from a library in the phage display vector pMESy4; not shown: His6, C-terminal, kept
B4 gave a Kd [6] of 0.053 µM, a Kd [7] of 0.043 µM and a koff [7] of 0.019 s⁻¹. For the same binder, the kon [7] was 440000 M⁻¹ s⁻¹, the binding result [8] was “binds” and the binding result [9] was “binds”. B4: binds [10]; binds [11].
